Measured values reported in publication doi:10.1101/2023.01.30.525655 (bioRxiv, 2023).

B1: MDL2-6xHis (Arabidopsis thaliana MIF/D-DT-like protein 2, hexahistidine-tagged) (natural protein)
chain: PCLNLSTNVNLDGVDTSSILSEASSTVAKIIGKPENYVMIVLKGSVPMSFGGTEDPAAYGELVSIGGLNADVNKKLSAAVSAILETKLSVPKSRFFLKFYDTKGSFFGWNGATL
B2: MDL3-6xHis (Arabidopsis thaliana MIF/D-DT-like protein 3, hexahistidine-tagged) (natural protein, UniProt F4J4H3 1-112, looked up)
chain: MPCLYITTNVNFDGVNTDPFYSEVTKAVASIVGRPQNLVMVVLKGSVEIVFGGNKEAAAYAEIVSMGGITKQVKRELIATVGSILHTHFSIHPTRFIFKVFDINSLPLPSKL

Tests used:
[1] = target: RED-NHS-MIF-6xHis (human MIF-6xHis labelled with the RED-NHS dye) (human, UniProt P14174 2-115, RED-NHS dye (chemically labeled)); experiment: MST
[2] = target: MIF-6xHis (human macrophage migration inhibitory factor, hexahistidine-tagged) (human, UniProt P14174 2-115); experiment: cell-based or functional assay
[3] = target: the molecule itself; experiment: SEC
[4] = target: the molecule itself; experiment: crystal structure

Sequence of RED-NHS-MIF-6xHis (human MIF-6xHis labelled with the RED-NHS dye) (P14174 2-115): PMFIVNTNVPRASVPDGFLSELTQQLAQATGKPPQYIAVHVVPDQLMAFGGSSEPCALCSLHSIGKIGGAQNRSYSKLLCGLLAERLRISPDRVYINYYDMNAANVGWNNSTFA
Sequence of MIF-6xHis (human macrophage migration inhibitory factor, hexahistidine-tagged) (P14174 2-115): as above

Binder | Kd [1] | synergy in the CXCR4 yeast lacZ reporter, 10 µM MIF with 10 µM MDL2 [2] | stoichiometry N [3] | stoichiometry N [4]
B1 | < 5 µM | ~3 fold over the MIF-MDL1 combination | 3 | –
B2 | < 5 µM | – | – | 3
